We go through five molecules from PMC6591243, “Characterization of metal binding of bifunctional kinase/phosphatase AceK and implication in activity modulation” (Scientific Reports, 2019).

Test [1] has as its target T1, AceK (isocitrate dehydrogenase kinase/phosphatase) (Escherichia coli, UniProt P11071).
T1 construct: hexahistidine-tagged, expressed in E. coli BL21 (DE3), Ni-NTA and Superdex200; 66 kDa
Nature of the test: X-ray crystallography. To be noted: allosteric site at interface of kinase and regulatory domains; complex with ADP and Mn2+; AMP not listed among crystallisation additions. Format: binding.

The target in test [2] is T2, phospho-IDH (isocitrate dehydrogenase phosphorylated by AceK) (E. coli) (UniProt P08200).
T2 sequence (chain, phosphorylated by AceK (residue not printed)): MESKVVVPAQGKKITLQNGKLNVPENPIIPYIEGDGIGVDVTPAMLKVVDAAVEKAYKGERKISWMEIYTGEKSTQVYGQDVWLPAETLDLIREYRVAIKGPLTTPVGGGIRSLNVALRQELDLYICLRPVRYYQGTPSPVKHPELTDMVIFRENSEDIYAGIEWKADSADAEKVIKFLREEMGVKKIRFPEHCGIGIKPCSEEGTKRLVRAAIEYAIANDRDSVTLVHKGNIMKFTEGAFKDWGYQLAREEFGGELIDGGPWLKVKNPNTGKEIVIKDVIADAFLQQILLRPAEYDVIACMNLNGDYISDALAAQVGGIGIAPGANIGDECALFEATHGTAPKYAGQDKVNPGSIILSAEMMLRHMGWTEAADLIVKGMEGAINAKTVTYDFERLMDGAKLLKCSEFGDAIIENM

Take `Nc1ncnc2c1ncn2[C@@H]1O[C@H](COP(=O)(O)O)[C@@H](O)[C@H]1O` [AMP]: the X-ray crystallography result in test [1] was “a buried ADP molecule and a bound AMP at the interface of the two domains”.

B1: isocitrate dehydrogenase kinase/phosphatase (AceK) wild-type (enzyme)
chain: MPRGLELLIAQTILQGFDAQYGRFLEVTSGAQQRFEQADWHAVQQAMKNRIHLYDHHVGLVVEQLRCITNGQSTDAAFLLRVKEHYTRLLPDYPRFEIAESFFNSVYCRLFDHRSLTPERLFIFSSQPERRFRTIPRPLAKDFHPDHGWESLLMRVISDLPLRLRWQNKSRDIHYIIRHLTETLGTDNLAESHLQVANELFYRNKAAWLVGKLITPSGTLPFLLPIHQTDDGELFIDTCLTTTAEASIVFGFARSYFMVYAPLPAALVEWLREILPGKTTAELYMAIGCQKHAKTESYREYLVYLQGCNEQFIEAPGIRGMVMLVFTLPGFDRVFKVIKDRFAPQKEMSAAHVRACYQLVKEHDRVGRMADTQEFENFVLEKRHISPALMELLLQEAAEKITDLGEQIVIRHLYIERRMVPLNIWLEQVEGQQLRDAIEEYGNAIRQLAAANIFPGDMLFKNFGVTRHGRVVFYDYDEICYMTEVNFRDIPPPRYPEDELASEPWYSVSPGDVFPEEFRHWLCADPRIGPLFEEMHADLFRADYWRALQNRIREGHVEDVYAYRRRQRFSVRYGEMLF
As to B1, the Km for phospho-IDH, phosphatase kinetics (20 mM Hepes pH 7.0, 2.0 mM Mn2+, 2.0 mM ADP, 37 °C) in test [2] was 0.376 μM.

B2: AceK D477K (enzyme)
chain: MPRGLELLIAQTILQGFDAQYGRFLEVTSGAQQRFEQADWHAVQQAMKNRIHLYDHHVGLVVEQLRCITNGQSTDAAFLLRVKEHYTRLLPDYPRFEIAESFFNSVYCRLFDHRSLTPERLFIFSSQPERRFRTIPRPLAKDFHPDHGWESLLMRVISDLPLRLRWQNKSRDIHYIIRHLTETLGTDNLAESHLQVANELFYRNKAAWLVGKLITPSGTLPFLLPIHQTDDGELFIDTCLTTTAEASIVFGFARSYFMVYAPLPAALVEWLREILPGKTTAELYMAIGCQKHAKTESYREYLVYLQGCNEQFIEAPGIRGMVMLVFTLPGFDRVFKVIKDRFAPQKEMSAAHVRACYQLVKEHDRVGRMADTQEFENFVLEKRHISPALMELLLQEAAEKITDLGEQIVIRHLYIERRMVPLNIWLEQVEGQQLRDAIEEYGNAIRQLAAANIFPGDMLFKNFGVTRHGRVVFYDYKEICYMTEVNFRDIPPPRYPEDELASEPWYSVSPGDVFPEEFRHWLCADPRIGPLFEEMHADLFRADYWRALQNRIREGHVEDVYAYRRRQRFSVRYGEMLF
On to B2, for which the Km for phospho-IDH, phosphatase kinetics (20 mM Hepes pH 7.0, 2.0 mM Mn2+, 2.0 mM ADP, 37 °C) in test [2] amounted to 12.2 μM.

B3: AceK D475A (enzyme)
chain: MPRGLELLIAQTILQGFDAQYGRFLEVTSGAQQRFEQADWHAVQQAMKNRIHLYDHHVGLVVEQLRCITNGQSTDAAFLLRVKEHYTRLLPDYPRFEIAESFFNSVYCRLFDHRSLTPERLFIFSSQPERRFRTIPRPLAKDFHPDHGWESLLMRVISDLPLRLRWQNKSRDIHYIIRHLTETLGTDNLAESHLQVANELFYRNKAAWLVGKLITPSGTLPFLLPIHQTDDGELFIDTCLTTTAEASIVFGFARSYFMVYAPLPAALVEWLREILPGKTTAELYMAIGCQKHAKTESYREYLVYLQGCNEQFIEAPGIRGMVMLVFTLPGFDRVFKVIKDRFAPQKEMSAAHVRACYQLVKEHDRVGRMADTQEFENFVLEKRHISPALMELLLQEAAEKITDLGEQIVIRHLYIERRMVPLNIWLEQVEGQQLRDAIEEYGNAIRQLAAANIFPGDMLFKNFGVTRHGRVVFYAYDEICYMTEVNFRDIPPPRYPEDELASEPWYSVSPGDVFPEEFRHWLCADPRIGPLFEEMHADLFRADYWRALQNRIREGHVEDVYAYRRRQRFSVRYGEMLF
For the molecule B3, the Km for phospho-IDH, phosphatase kinetics (20 mM Hepes pH 7.0, 2.0 mM Mn2+, 2.0 mM ADP, 37 °C) in test [2] worked out at 1.95 μM.

B4: AceK D477A (enzyme)
chain: MPRGLELLIAQTILQGFDAQYGRFLEVTSGAQQRFEQADWHAVQQAMKNRIHLYDHHVGLVVEQLRCITNGQSTDAAFLLRVKEHYTRLLPDYPRFEIAESFFNSVYCRLFDHRSLTPERLFIFSSQPERRFRTIPRPLAKDFHPDHGWESLLMRVISDLPLRLRWQNKSRDIHYIIRHLTETLGTDNLAESHLQVANELFYRNKAAWLVGKLITPSGTLPFLLPIHQTDDGELFIDTCLTTTAEASIVFGFARSYFMVYAPLPAALVEWLREILPGKTTAELYMAIGCQKHAKTESYREYLVYLQGCNEQFIEAPGIRGMVMLVFTLPGFDRVFKVIKDRFAPQKEMSAAHVRACYQLVKEHDRVGRMADTQEFENFVLEKRHISPALMELLLQEAAEKITDLGEQIVIRHLYIERRMVPLNIWLEQVEGQQLRDAIEEYGNAIRQLAAANIFPGDMLFKNFGVTRHGRVVFYDYAEICYMTEVNFRDIPPPRYPEDELASEPWYSVSPGDVFPEEFRHWLCADPRIGPLFEEMHADLFRADYWRALQNRIREGHVEDVYAYRRRQRFSVRYGEMLF
Regarding B4, the Km for phospho-IDH, phosphatase kinetics (20 mM Hepes pH 7.0, 2.0 mM Mn2+, 2.0 mM ADP, 37 °C) in test [2] was 16.1 μM.
